The values below come from publication PMC10544015 (Journal of Medicinal Chemistry, 2023).

Bridge positions count the residues as written; N and C are the ends. Square brackets hold non-standard residues; d marks the D form. Triazole bridges read from a SMILES are 1,4-linked. Peptide text beside a SMILES is read from it. Lys(N3) = [N-]=[N+]=NCCCC[C@H](N)C(=O)O; Orn(N3) = [N-]=[N+]=NCCC[C@H](N)C(=O)O; Hpra = C#CCC[C@H](N)C(=O)O; Pra = C#CC[C@H](N)C(=O)O

The series can be described thus: circular dichroism. The conditions noted are these: PBS (10 mM phosphate, 137 mM NaCl, 2.7 mM KCl); pH 7.4; rt °C; 100 uM.
`CC(=O)N[C@@H](CO)C(=O)N[C@@H](Cc1c[nH]c2ccccc12)C(=O)N[C@@H](CCCNC(=N)N)C(=O)N[C@@H](CCC(N)=O)C(=O)N[C@@H](C)C(=O)N[C@@H]1Cc2cn(nn2)CCCC[C@@H](C(=O)N[C@@H](Cc2ccc(O)cc2)C(N)=O)NC(=O)[C@H](CC(=O)O)NC(=O)[C@H](C(C)C)NC(=O)[C@H](Cc2ccccc2)NC1=O` returned a helicity of 7%.
Molecule `CC(=O)N[C@@H]1Cc2cn(nn2)CCCC[C@@H](C(=O)N[C@@H](C)C(=O)N[C@@H](Cc2ccccc2)C(=O)N[C@H](C(=O)N[C@@H](CC(=O)O)C(=O)N[C@@H](CO)C(=O)N[C@@H](Cc2ccc(O)cc2)C(N)=O)C(C)C)NC(=O)[C@H](CCC(N)=O)NC(=O)[C@H](CCCNC(=N)N)NC(=O)[C@H](Cc2c[nH]c3ccccc23)NC1=O` gave a helicity of 18%.
`CC(=O)N[C@@H](CO)C(=O)N[C@@H](Cc1c[nH]c2ccccc12)C(=O)N[C@@H](CCCNC(=N)N)C(=O)N[C@@H](CCC(N)=O)C(=O)N[C@@H](C)C(=O)N[C@@H](C)C(=O)N[C@@H](Cc1ccccc1)C(=O)N[C@H]1Cc2cn(nn2)CCCC[C@@H](C(N)=O)NC(=O)[C@H](Cc2ccc(O)cc2)NC(=O)[C@H](CO)NC(=O)[C@H](CC(=O)O)NC1=O` (Ac-SWRQAAF[Pra]DSY[Lys(N3)]-NH2; triazole 8-12) yielded a helicity of 30%.
In turn, `CC(=O)N[C@@H](CO)C(=O)N[C@@H](Cc1c[nH]c2ccccc12)C(=O)N[C@@H](CCCNC(=N)N)C(=O)N[C@@H](CCC(N)=O)C(=O)N[C@@H](C)C(=O)N[C@@H](C)C(=O)N[C@@H](Cc1ccccc1)C(=O)N[C@H]1Cc2cn(nn2)CCC[C@@H](C(N)=O)NC(=O)[C@H](Cc2ccc(O)cc2)NC(=O)[C@H](CO)NC(=O)[C@H](CC(=O)O)NC1=O` (Ac-SWRQAAF[Pra]DSY[Orn(N3)]-NH2; triazole 8-12) returned a helicity of 12%.
The molecule `CC(=O)N[C@@H](CO)C(=O)N[C@@H](Cc1c[nH]c2ccccc12)C(=O)N[C@@H](CCCNC(=N)N)C(=O)N[C@@H](CCC(N)=O)C(=O)N[C@@H](C)C(=O)N[C@@H](C)C(=O)N[C@H]1Cc2cn(nn2)CCCC[C@@H](C(N)=O)NC(=O)[C@H](CO)NC(=O)[C@H](CC(=O)O)NC(=O)[C@H](C(C)C)NC1=O` (Ac-SWRQAA[Pra]VDS[Lys(N3)]-NH2; triazole 7-11) showed a helicity of 37%.
In turn, `CC(=O)N[C@@H](CO)C(=O)N[C@@H](Cc1c[nH]c2ccccc12)C(=O)N[C@@H](CCCNC(=N)N)C(=O)N[C@@H](CCC(N)=O)C(=O)N[C@@H](C)C(=O)N[C@@H](C)C(=O)N[C@H]1Cc2cn(nn2)CCC[C@@H](C(N)=O)NC(=O)[C@H](CO)NC(=O)[C@H](CC(=O)O)NC(=O)[C@H](C(C)C)NC1=O` (Ac-SWRQAA[Pra]VDS[Orn(N3)]-NH2; triazole 7-11) displayed a helicity of 6%.
Then `CC(=O)N[C@@H](CO)C(=O)N[C@@H](Cc1c[nH]c2ccccc12)C(=O)N[C@@H](CCCNC(=N)N)C(=O)N[C@@H](CCC(N)=O)C(=O)N[C@@H](C)C(=O)N[C@H]1CCc2cn(nn2)CCCC[C@@H](C(=O)N[C@@H](Cc2ccc(O)cc2)C(N)=O)NC(=O)[C@H](CC(=O)O)NC(=O)[C@H](C(C)C)NC(=O)[C@H](Cc2ccccc2)NC1=O` (Ac-SWRQA[Hpra]FVD[Lys(N3)]Y-NH2; triazole 6-10), with 28%.
The molecule `CC(=O)N[C@@H](CO)C(=O)N[C@@H](Cc1c[nH]c2ccccc12)C(=O)N[C@@H](CCCNC(=N)N)C(=O)N[C@@H](CCC(N)=O)C(=O)N[C@@H](C)C(=O)N[C@H]1CCCCn2cc(nn2)C[C@@H](C(=O)N[C@@H](Cc2ccc(O)cc2)C(N)=O)NC(=O)[C@H](CC(=O)O)NC(=O)[C@H](C(C)C)NC(=O)[C@H](Cc2ccccc2)NC1=O` (Ac-SWRQA[Lys(N3)]FVD[Pra]Y-NH2; triazole 6-10) displayed a helicity of 32%.
Turning to `CC(=O)N[C@@H](CO)C(=O)N[C@@H](Cc1c[nH]c2ccccc12)C(=O)N[C@@H](CCCNC(=N)N)C(=O)N[C@@H](CCC(N)=O)C(=O)N[C@@H](C)C(=O)N[C@H]1Cc2cn(nn2)CCC[C@@H](C(=O)N[C@@H](Cc2ccc(O)cc2)C(N)=O)NC(=O)[C@H](CC(=O)O)NC(=O)[C@H](C(C)C)NC(=O)[C@H](Cc2ccccc2)NC1=O` (Ac-SWRQA[Pra]FVD[Orn(N3)]Y-NH2; triazole 6-10), the helicity came out at 17%.
